Data published in article PMC12501296, “P4HA2 interacted with ATAD3A to modulate PINK1/parkin-dependent mitophagy and ^125I brachytherapy sensitization in esophageal carcinoma” (Cell Death & Disease, 2025).

Target: T1, ATAD3A-HA, in vitro translated (UniProt Q9NVI7-2 1-586)
T1 construct: ATAD3A (ATPase family AAA domain-containing 3A); the truncation map of the ATAD3A-HA plasmids ends at residue 586, which fits the 586-residue isoform; read as C-terminal; also called ATAD3A-HA (pcDNA3.1 vector); source: in vitro translated (TnT quick coupled transcription/translation, Promega), then purified
T1 sequence (looked up): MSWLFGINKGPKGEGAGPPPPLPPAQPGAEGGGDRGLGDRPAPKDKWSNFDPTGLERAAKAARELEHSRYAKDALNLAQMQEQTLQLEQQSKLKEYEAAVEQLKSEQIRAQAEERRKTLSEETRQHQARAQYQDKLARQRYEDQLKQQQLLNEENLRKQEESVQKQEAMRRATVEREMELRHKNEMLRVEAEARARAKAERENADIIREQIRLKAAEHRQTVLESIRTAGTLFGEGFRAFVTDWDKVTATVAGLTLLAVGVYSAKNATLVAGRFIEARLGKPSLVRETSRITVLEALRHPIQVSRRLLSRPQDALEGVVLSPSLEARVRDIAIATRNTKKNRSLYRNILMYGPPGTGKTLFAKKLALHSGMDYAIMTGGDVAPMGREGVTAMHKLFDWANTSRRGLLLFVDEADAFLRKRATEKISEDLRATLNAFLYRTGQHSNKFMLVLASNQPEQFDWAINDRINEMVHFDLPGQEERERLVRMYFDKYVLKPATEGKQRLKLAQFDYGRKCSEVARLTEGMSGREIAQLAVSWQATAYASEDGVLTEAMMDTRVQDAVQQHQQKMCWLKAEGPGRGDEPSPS
Experiment: co-IP; P4HA2-FLAG and ATAD3A-HA made by TnT quick coupled transcription/translation (30 °C, 90 min), purified, then co-IP
Conditions: both partners purified

binding result: binds
B1: P4HA2-FLAG, in vitro translated (natural protein, UniProt O15460 1-535, looked up)
chain: MKLWVSALLMAWFGVLSCVQAEFFTSIGHMTDLIYAEKELVQSLKEYILVEEAKLSKIKSWANKMEALTSKSAADAEGYLAHPVNAYKLVKRLNTDWPALEDLVLQDSAAGFIANLSVQRQFFPTDEDEIGAAKALMRLQDTYRLDPGTISRGELPGTKYQAMLSVDDCFGMGRSAYNEGDYYHTVLWMEQVLKQLDAGEEATTTKSQVLDYLSYAVFQLGDLHRALELTRRLLSLDPSHERAGGNLRYFEQLLEEEREKTLTNQTEAELATPEGIYERPVDYLPERDVYESLCRGEGVKLTPRRQKRLFCRYHHGNRAPQLLIAPFKEEDEWDSPHIVRYYDVMSDEEIERIKEIAKPKLARATVRDPKTGVLTVASYRVSKSSWLEEDDDPVVARVNRRMQHITGLTVKTAELLQVANYGVGGQYEPHFDFSRNDERDTFKHLGTGNRVATFLNYMSDVEAGGATVFPDLGAAIWPKKGTAVFWYNLLRSGEGDYRTRHAACPVLVGCKWVSNKWFHERGQEFLRPCGSTEVD
notes: P4HA2 (Prolyl-4-Hydroxylase Alpha Subunit 2); read as C-terminal; also called P4HA2-FLAG (pcDNA3.1 vector); source: in vitro translated (TnT quick coupled transcription/translation, Promega), then purified
